Measurements from paper PMC3384689 (Biochemistry, 2012).

Experiments:
SEC-MALS = target: the molecule itself; experiment: SEC-MALS
[1] = target: synthetic FliF_(512–532) peptide of Thermotoga maritima FliF (Thermotoga maritima); experiment: other fluorescence titration
[2] = target: synthetic FliF_(495–532) peptide of Thermotoga maritima FliF (Thermotoga maritima); experiment: other fluorescence titration
full-length FliG = experiment: Size-exclusion chromatography / light scattering, full-length FliG; assay type: physicochemical, T. maritima; details: SEC / static light scattering / refractive index; ~1 mg/mL, 25 mM Tris, 200 mM NaCl, 0.5 mM EDTA, pH 7.4

B1: Thermotoga maritima FliG N-terminal domain construct, residues 1–102 (FliGN) (domain or fragment, UniProt Q9WY63 1-102, looked up)
chain: MPEKKIDGRRKAAVLLVALGPEKAAQVMKHLDEETVEQLVVEIANIGRVTPEEKKQVLEEFLSLAKAKEMISEGGIEYAKKVLEKAFGPERARKIIERLTSS
modifications: 15N, 2H (and 13C) isotope labelling in the NMR experiments
- stoichiometry N (SEC-MALS): 2
- Kd [1]: 84 nM
- stoichiometry N [2]: 1

B2: full-length Thermotoga maritima FliG (FliGNMC) (natural protein, UniProt Q9WY63 1-335, looked up)
chain: MPEKKIDGRRKAAVLLVALGPEKAAQVMKHLDEETVEQLVVEIANIGRVTPEEKKQVLEEFLSLAKAKEMISEGGIEYAKKVLEKAFGPERARKIIERLTSSLQVKPFSFVRDTDPVQLVNFLQSEHPQTIAVVLSYLDPPVAAQILGALPEELQTEVLKRIALLERTSPEVVKEIERNLEKKISGFVSRTFSKVGGIDTAAEIMNNLDRTTEKKIMDKLVQENPELADEIRRRMFVFEDILKLDDRSIQLVLREVDTRDLALALKGASDELKEKIFKNMSKRAAALLKDELEYMGPVRLKDVEEAQQKIINIIRRLEEAGEIVIARGGGEELIM
- stoichiometry N (SEC-MALS): 2

B3: full-length FliG: full-length T. maritima FliGNMC, including a N-terminal 6X-His tag (protein)
chain: B2 chain
modifications: left off: 6X-His, N-terminal, state not stated
- Calculated Mw of full-length FliG, absence of peptide (full-length FliG): ≈ 79 kD
- Oligomeric state of full-length FliG, absence of peptide (full-length FliG): tight dimer
